This is an account of results in article PMC3708883.

The target of assay [1] is β1 integrin (human (endogenous in peripheral blood monocytes)) (UniProt P05556).
The target in assay [2] is β3 integrin (human (endogenous in peripheral blood monocytes)) (UniProt P05106).
β3 integrin (human (endogenous in peripheral blood monocytes)), sequence (P05106 27-788): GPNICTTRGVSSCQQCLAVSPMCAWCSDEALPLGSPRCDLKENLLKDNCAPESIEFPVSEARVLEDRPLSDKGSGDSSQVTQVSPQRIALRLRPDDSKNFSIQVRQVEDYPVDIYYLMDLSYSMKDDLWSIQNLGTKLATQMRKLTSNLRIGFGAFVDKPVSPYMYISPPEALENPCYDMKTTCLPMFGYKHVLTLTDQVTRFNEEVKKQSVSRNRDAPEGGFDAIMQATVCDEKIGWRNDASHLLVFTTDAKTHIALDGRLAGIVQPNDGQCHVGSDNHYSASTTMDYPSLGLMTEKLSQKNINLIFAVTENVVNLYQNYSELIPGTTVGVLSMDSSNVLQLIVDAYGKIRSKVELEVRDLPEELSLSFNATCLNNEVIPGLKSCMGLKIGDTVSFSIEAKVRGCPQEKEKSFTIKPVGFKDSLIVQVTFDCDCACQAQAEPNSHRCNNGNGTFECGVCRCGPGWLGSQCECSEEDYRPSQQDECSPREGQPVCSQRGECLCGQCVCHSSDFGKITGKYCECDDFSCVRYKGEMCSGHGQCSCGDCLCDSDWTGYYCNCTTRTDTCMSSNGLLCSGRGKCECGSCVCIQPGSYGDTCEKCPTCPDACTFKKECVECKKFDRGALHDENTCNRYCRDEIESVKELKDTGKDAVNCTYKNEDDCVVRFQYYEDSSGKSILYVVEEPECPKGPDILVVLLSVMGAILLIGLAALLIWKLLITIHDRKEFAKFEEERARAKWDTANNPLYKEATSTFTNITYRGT

β1 integrin (human (endogenous in peripheral blood monocytes)), sequence (P05556 21-798): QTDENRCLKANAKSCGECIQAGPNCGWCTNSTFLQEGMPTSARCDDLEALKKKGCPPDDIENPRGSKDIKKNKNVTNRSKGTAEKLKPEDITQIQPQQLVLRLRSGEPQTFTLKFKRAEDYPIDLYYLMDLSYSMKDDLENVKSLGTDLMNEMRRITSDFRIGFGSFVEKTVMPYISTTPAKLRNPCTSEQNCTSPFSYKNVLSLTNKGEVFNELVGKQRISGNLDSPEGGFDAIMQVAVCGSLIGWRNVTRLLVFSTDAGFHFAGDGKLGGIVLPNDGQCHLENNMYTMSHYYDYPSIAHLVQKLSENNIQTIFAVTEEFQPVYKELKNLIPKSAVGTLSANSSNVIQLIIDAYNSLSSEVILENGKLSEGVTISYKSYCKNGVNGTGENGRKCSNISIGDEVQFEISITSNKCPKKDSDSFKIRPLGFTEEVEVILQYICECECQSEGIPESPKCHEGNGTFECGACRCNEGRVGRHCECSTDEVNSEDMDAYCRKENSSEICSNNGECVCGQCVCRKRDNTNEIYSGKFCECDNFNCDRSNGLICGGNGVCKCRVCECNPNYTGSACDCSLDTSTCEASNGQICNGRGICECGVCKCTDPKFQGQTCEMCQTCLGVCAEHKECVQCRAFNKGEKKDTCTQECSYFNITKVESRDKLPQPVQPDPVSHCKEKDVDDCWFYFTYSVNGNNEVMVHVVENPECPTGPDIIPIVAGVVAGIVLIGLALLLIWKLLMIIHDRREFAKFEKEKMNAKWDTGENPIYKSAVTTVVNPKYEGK

Take “HCMV gH/gL/UL128-131 complex of BADrUL131 (from UniProt P12824 24-743; P16832 31-278; P16837 1-171; P16772 1-214)”: the inhibition of BADrUL131 entry into monocytes (internalized vDNA) after pretreatment with 5 µg/ml function blocking anti-β1 integrin antibody in assay [1] was 75%. Also, the inhibition of BADrUL131 entry into monocytes (internalized vDNA) after pretreatment with 5 µg/ml function blocking anti-β3 integrin antibody in assay [2] was 40%.
